Experimental data as given in US20050063973A1 (URIFER, published 2005).

Biological target: T1, TMF/ARA160 (endogenous protein of C2C12, NIH3T3 and T127 cells) (UniProt B9EKI3 1-1091)
T1 construct: Endogenous protein, immunoprecipitated from whole cell extracts or stained in fixed cells; also called Gate-Keeper; GK
T1 sequence (looked up): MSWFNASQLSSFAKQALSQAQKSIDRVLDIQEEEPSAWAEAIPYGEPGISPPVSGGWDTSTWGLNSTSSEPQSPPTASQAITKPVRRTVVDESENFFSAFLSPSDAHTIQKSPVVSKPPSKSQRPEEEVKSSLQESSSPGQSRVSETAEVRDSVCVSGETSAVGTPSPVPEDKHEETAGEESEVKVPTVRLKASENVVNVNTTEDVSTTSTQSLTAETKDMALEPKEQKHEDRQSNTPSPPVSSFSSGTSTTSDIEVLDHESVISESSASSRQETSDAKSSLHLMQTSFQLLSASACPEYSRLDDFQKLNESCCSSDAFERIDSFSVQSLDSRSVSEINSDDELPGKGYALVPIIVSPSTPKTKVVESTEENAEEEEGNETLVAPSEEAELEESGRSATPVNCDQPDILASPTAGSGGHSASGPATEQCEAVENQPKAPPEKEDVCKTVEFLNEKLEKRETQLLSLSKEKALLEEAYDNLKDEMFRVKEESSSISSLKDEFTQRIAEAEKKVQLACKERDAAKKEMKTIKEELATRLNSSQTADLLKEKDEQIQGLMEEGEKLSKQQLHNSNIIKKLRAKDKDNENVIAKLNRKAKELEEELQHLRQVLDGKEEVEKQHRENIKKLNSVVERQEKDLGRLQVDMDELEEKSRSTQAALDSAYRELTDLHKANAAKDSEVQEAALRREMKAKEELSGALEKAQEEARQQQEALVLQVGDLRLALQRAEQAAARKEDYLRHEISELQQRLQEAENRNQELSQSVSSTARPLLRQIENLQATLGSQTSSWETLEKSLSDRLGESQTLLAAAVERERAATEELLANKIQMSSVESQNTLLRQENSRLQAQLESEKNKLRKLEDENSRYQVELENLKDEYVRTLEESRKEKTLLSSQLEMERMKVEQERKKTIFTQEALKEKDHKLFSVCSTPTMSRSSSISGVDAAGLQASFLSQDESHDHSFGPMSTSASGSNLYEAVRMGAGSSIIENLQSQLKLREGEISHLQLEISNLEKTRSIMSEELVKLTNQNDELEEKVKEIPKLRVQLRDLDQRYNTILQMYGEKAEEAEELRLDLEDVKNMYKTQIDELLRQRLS
Assay: co-immunoprecipitation with αTMF/ARA160 from C2C12 extracts, Western blot with αStat1
Excerpt: FIG. 6 is an immunoprecipitation showing that TMF/ARA160 associates with cyclin D1 and Stat3 but not with Stat1, in serum starved C2C12 cells. […] Whole cell extracts from actively growing (lanes 1 and 5) or serum-starved cells (lanes 2-4 and 6-8) which were either untreated (lanes 1-4) or treated with MG132 (lanes 5-8), were resolved by 7% SDS-PAGE and exposed to αStat3 (upper panel); αcyclin D1 (middle panel); or αStat1 antibodies (lower panel), in a Western-blot analysis. […] TMF/ARA160 was immunoprecipitated from the extracts described in A. Precipitates were resolved by 7% SDS-PAGE and were reacted with αStat3 (upper panel); αStat1 (middle panel); or αcyclin D1 antibodies (lower panel), in a Western-blot analysis.

B1: Stat1 (endogenous protein of C2C12 cells) (other, UniProt P42225 2-749, looked up)
chain: SQWFELQQLDSKFLEQVHQLYDDSFPMEIRQYLAQWLEKQDWEHAAYDVSFATIRFHDLLSQLDDQYSRFSLENNFLLQHNIRKSKRNLQDNFQEDPVQMSMIIYNCLKEERKILENAQRFNQAQEGNIQNTVMLDKQKELDSKVRNVKDQVMCIEQEIKTLEELQDEYDFKCKTSQNREGEANGVAKSDQKQEQLLLHKMFLMLDNKRKEIIHKIRELLNSIELTQNTLINDELVEWKRRQQSACIGGPPNACLDQLQTWFTIVAETLQQIRQQLKKLEELEQKFTYEPDPITKNKQVLSDRTFLLFQQLIQSSFVVERQPCMPTHPQRPLVLKTGVQFTVKSRLLVKLQESNLLTKVKCHFDKDVNEKNTVKGFRKFNILGTHTKVMNMEESTNGSLAAELRHLQLKEQKNAGNRTNEGPLIVTEELHSLSFETQLCQPGLVIDLETTSLPVVVISNVSQLPSGWASILWYNMLVTEPRNLSFFLNPPCAWWSQLSEVLSWQFSSVTKRGLNADQLSMLGEKLLGPNAGPDGLIPWTRFCKENINDKNFSFWPWIDTILELIKNDLLCLWNDGCIMGFISKERERALLKDQQPGTFLLRFSESSREGAITFTWVERSQNGGEPDFHAVEPYTKKELSAVTFPDIIRNYKVMAAENIPENPLKYLYPNIDKDHAFGKYYSRPKEAPEPMELDDPKRTGYIKTELISVSEVHPSRLQTTDNLLPMSPEEFDEMSRIVGPEFDSMMSTV
  binding result: no binding
